What all share (assay): cell-based or functional assay
Test [1] deals with HIV-1 Env of isolate MGRM-D-024 (clade D pseudovirus) (HIV-1).
Test [2] addresses HIV-1 Env of isolate MGRM-G-011 (HIV-1).
The target in test [3] is HIV-1 Env of pseudovirus MGRM-F1-010 (HIV-1).
Test [4] has as its target HIV-1 MGRM-C-027 Env (pseudovirus, clade C) (HIV-1).
The target of test [5] is HIV-1 envelope glycoprotein (Env) of isolate MGRM-A-007, clade A (HIV-1).
Test [6] deals with HIV-1 Env of pseudovirus MGRM-AG-002 (clade CRF_AG) (HIV-1).
Test [7] addresses HIV-1 JRCSF envelope glycoprotein (Env) on pseudovirus (HIV-1) (UniProt P20871).
In test [8] the target is HIV-1 APV-17 envelope glycoprotein (Env) on pseudovirus (HIV-1).
Test [9] addresses HIV-1 92TH021 envelope glycoprotein (Env) on pseudovirus (HIV-1).
Test [10] has as its target HIV-1 Env of pseudovirus MGRM-AE-005 (clade CRF01_AE) (HIV-1).
Test [11] has as its target HIV-1 Env of isolate MGRM-AE-005 (HIV-1).
In test [12] the target is HIV-1 Env of isolate TRO.11 (subtype B pseudovirus) (HIV-1).
For test [13], the target named is HIV-1 Env of isolate MGRM-D-003 (pseudovirus) (HIV-1).
The target of test [14] is HIV-1 Env of isolate MGRM-Chronic-B-012 (subtype B pseudovirus) (HIV-1).
The target of test [15] is HIV-1 Env of isolate MGRM-F1-012 (pseudovirus) (HIV-1).
The target of test [16] is HIV-1 Env of isolate MGRM-D-014 (pseudovirus) (HIV-1).
Test [17] addresses HIV-1 Env of isolate 93IN905 (subtype C pseudovirus) (HIV-1).
In test [18] the target is HIV-1 Env of isolate 92UG024 (pseudovirus) (HIV-1).
In test [19] the target is HIV-1 Env of isolate MGRM-D-024 (pseudovirus) (HIV-1).
For test [20], the target named is HIV-1 Env of isolate MGRM-Chronic-B-008 (subtype B pseudovirus) (HIV-1).
Test [21] deals with HIV-1 MGRM-AG-005 Env (pseudovirus) (HIV-1).
Test [22] addresses HIV-1 APV17 Env (pseudovirus, clade B) (HIV-1).
Test [23] concerns the target HIV-1 Env of isolate 92TH021 (pseudovirus) (HIV-1).
The target in test [24] is HIV-1 Env of isolate QH0692.42 (subtype B) (HIV-1).
The target of test [25] is HIV-1 envelope glycoprotein (Env) of isolate MGRM-C-009 (HIV-1).
Test [26] concerns the target HIV-1 envelope glycoprotein (Env) of isolate MGRM-C-015 (HIV-1).
The target in test [27] is HIV-1 Env of isolate MG RM-D-016 (HIV-1).
The target in test [28] is HIV-1 Env of isolate MGRM-Chronic-B-003 (subtype B) (HIV-1).
In test [29] the target is HIV-1 envelope glycoprotein (Env) of isolate MGRM-C-022 (HIV-1).
Test [30] deals with HIV-1 Env of isolate MG RM-D-001 (HIV-1).
In test [31] the target is HIV-1 Env of isolate TRO.11 (subtype B) (HIV-1).
Test [32] concerns the target HIV-1 Env of isolate MGRM-Chronic-B-023 (subtype B) (HIV-1).
The target of test [33] is HIV-1 Env of isolate MG RM-D-005 (HIV-1).
Test [34] concerns the target HIV-1 Env of isolate 94KE105 (subtype AC) (HIV-1).
Test [35] concerns the target HIV-1 Env of isolate MGRM-A-012 (subtype A) (HIV-1).
Test [36] has as its target HIV-1 Env of isolate SF162 (subtype B) (HIV-1) (UniProt P19550).

5345_I01 (PGT-137) (antibody), sequence (VH): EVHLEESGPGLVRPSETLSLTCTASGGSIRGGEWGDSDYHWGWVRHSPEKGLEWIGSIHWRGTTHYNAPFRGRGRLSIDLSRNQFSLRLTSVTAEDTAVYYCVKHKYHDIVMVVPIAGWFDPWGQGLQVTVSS
5345_I01 (PGT-137) (antibody), sequence (VL): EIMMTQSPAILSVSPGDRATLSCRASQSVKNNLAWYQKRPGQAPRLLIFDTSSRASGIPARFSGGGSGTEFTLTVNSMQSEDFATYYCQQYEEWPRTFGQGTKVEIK
4995_E20 (PGT-142) (antibody), sequence (VH): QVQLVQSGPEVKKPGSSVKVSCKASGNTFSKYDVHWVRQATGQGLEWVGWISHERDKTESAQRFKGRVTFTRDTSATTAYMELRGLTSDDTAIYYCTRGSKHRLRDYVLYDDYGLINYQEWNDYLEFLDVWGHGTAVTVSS
4995_E20 (PGT-142) (antibody), sequence (VL): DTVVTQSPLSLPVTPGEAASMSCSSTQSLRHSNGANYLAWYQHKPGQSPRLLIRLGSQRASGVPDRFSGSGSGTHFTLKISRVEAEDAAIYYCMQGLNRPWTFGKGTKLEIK
4993_K13 (PGT-141) (antibody), sequence (VH): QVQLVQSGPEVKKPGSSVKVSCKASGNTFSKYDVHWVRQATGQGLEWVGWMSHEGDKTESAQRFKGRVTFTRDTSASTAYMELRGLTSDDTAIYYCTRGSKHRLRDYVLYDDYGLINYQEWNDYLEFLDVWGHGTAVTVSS
4980_N08 (PGT-143) (antibody), sequence (VH): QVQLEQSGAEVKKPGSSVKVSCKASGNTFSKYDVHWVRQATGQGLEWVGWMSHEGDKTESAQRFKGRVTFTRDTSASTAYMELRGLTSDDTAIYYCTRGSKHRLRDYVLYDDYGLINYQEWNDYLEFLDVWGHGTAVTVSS
4980_N08 (PGT-143) (antibody), sequence (VL): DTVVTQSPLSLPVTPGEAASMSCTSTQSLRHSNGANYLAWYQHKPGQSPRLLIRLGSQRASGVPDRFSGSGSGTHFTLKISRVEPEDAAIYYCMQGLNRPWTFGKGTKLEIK
4970_K22 (PGT-144) (antibody), sequence (VH): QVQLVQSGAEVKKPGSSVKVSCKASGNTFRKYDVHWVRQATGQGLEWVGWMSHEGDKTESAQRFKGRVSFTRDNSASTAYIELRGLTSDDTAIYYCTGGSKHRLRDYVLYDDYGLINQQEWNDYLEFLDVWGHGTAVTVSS
4970_K22 (PGT-144) (antibody), sequence (VL): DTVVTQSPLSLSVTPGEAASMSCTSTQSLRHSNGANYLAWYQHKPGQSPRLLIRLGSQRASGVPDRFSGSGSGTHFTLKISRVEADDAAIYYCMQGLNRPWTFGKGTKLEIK

Broadly, the IC50 is the concentration that gives 50% inhibition. A lower IC50 goes with greater potency. On to 1496_C09 (PG9) (TCN-109) (antibody), for which the figures for the IC50 (µg/ml), pseudovirus neutralization in test [1], in [3] and in test [5] were 0.03 µg/mL, 0.03 µg/mL and 0.37 µg/mL, respectively. The substance further yielded an IC50 (µg/mL), pseudovirus neutralization in test [2] of 0.335 µg/mL. In [4], the IC50 neutralization was 2.45 µg/mL. Also, the IC50 in [6] stood at 0.04 µg/mL; in test [10], 0.16 µg/mL. Also, the IC50, pseudovirus neutralization is less than 2.5 ng/mL in [7], 26.4 µg/mL in test [8] and 0.111 µg/mL in [9]. Further, the IC90 (pseudovirus neutralization) in [7] was less than 0.0025 µg/mL.
Substance 4838_L06 (PGT-121) (antibody) showed an IC50 in test [11] greater than 50 µg/mL. Also, the IC50 (µg/mL), pseudovirus neutralization was determined as 0.008 µg/mL in test [12], 0.036 µg/mL in test [14], 0.005 µg/mL in [17] and 0.007 µg/mL in [20]. The IC50, pseudovirus neutralization in test [13] is 10.7 µg/mL; in [15] it was 1.91 µg/mL; in test [16] it was 0.009 µg/mL; in [18] it was greater than 50 µg/mL; in test [19], 0.038 µg/mL.
4858_P08 (PGT-123) (antibody) gave an IC50 in test [11] greater than 50 µg/mL. In addition, the IC50 (µg/mL), pseudovirus neutralization in test [12] amounted to 0.008 µg/mL; in test [14], 0.227 µg/mL; in test [17] it was 0.004 µg/mL; in test [20] it was 0.01 µg/mL. Further, the IC50, pseudovirus neutralization in test [13] is 3.74 µg/mL; in [15] it was 22.2 µg/mL; in test [16] it was 0.009 µg/mL; in [18], greater than 50 µg/mL; in test [19], 0.023 µg/mL. Moreover, the IC50 neutralization in [4] is 0.0169 µg/mL; in [22], 0.18 µg/mL. The substance also returned a neutralization IC50 (pseudovirus) in test [21] of 0.104 µg/mL. Besides, the neutralization IC50 in test [7] was 0.0423 µg/mL; in test [9], greater than 10 µg/mL. Further, the neutralization IC80 was 0.143 µg/mL in test [7] and greater than 10 µg/mL in test [9]. In addition, the neutralization IC90 in test [7] is 0.289 µg/mL; in [9] it was greater than 10 µg/mL. The values for the neutralization IC95 in test [7] and in test [9] were 0.547 µg/mL and greater than 10 µg/mL, respectively.
Consider 4877_D15 (PGT-122) (antibody), for which the IC50 in test [11] was greater than 50 µg/mL. Further, the IC50 (µg/mL), pseudovirus neutralization is 0.011 µg/mL in test [12], 0.066 µg/mL in test [14], 0.013 µg/mL in test [17] and 0.017 µg/mL in test [20]. Further, the IC50, pseudovirus neutralization was greater than 50 µg/mL in test [13]; greater than 50 µg/mL in test [15]; 0.012 µg/mL in test [16]; greater than 50 µg/mL in test [18]; 0.185 µg/mL in test [19]. In addition, the IC50 neutralization in test [4] stood at 0.0388 µg/mL; in test [22] it was 0.522 µg/mL. For the same substance, in test [21], the neutralization IC50 (pseudovirus) is greater than 10 µg/mL.
4970_K22 (PGT-144) (antibody) showed an IC50 (µg/mL), pseudovirus neutralization in test [2] of 1.58 µg/mL. Also, the IC50 (neutralizing activity, pseudovirus) in [21] is greater than 10 µg/mL.
4980_N08 (PGT-143) (antibody) displayed an IC50 (µg/mL), pseudovirus neutralization in test [2] of 0.074 µg/mL. The substance further had an IC50 (neutralizing activity, pseudovirus) in test [21] of 0.244 µg/mL.
In the same order, the values of 4993_K13 (PGT-141) (antibody) are 0.086 µg/mL and 0.392 µg/mL.
With 4995_E20 (PGT-142) (antibody), the IC50 (µg/mL), pseudovirus neutralization in test [2] was found to be 0.046 µg/mL. The substance also displayed an IC50 (neutralizing activity, pseudovirus) in test [21] of 0.22 µg/mL.
In turn, 5123_A06 (PGT-125) (antibody) registered an IC50 in test [11] of 0.01 µg/mL. For the same substance, the IC50 (µg/mL), pseudovirus neutralization in [12] was 0.111 µg/mL; in [14], 0.036 µg/mL; in test [17] it was 0.009 µg/mL; in test [20] it was greater than 50 µg/mL. Moreover, the IC50, pseudovirus neutralization is 0.065 µg/mL in test [13]; greater than 50 µg/mL in test [15]; greater than 50 µg/mL in test [16]; greater than 50 µg/mL in test [18]; greater than 50 µg/mL in test [19]. Also, the IC50 neutralization is greater than 10 µg/mL in test [4] and 7.31 µg/mL in [22]. The same substance came in with a neutralization IC50 (pseudovirus) in test [21] greater than 10 µg/mL. In [23], the Polyclonal Transfectant Neutralization Index worked out at 50.6. The Primary Neutralization Index (B cell culture supernatant) in test [23] came out at 133.
Turning to 5141_B17 (PGT-126) (antibody), in test [11], the IC50 was determined as 0.324 µg/mL. The IC50 (µg/mL), pseudovirus neutralization was determined as 0.041 µg/mL in test [12], 0.027 µg/mL in test [14], 0.015 µg/mL in test [17] and 5.89 µg/mL in test [20]. In addition, the IC50, pseudovirus neutralization in test [13] was 0.021 µg/mL; in test [15], 0.3 µg/mL; in [16] it was 0.03 µg/mL; in [18] it was greater than 50 µg/mL; in [19] it was 0.376 µg/mL; in test [9], 0.115 µg/mL. In addition, the IC50 neutralization amounted to 1.14 µg/mL in [4] and 0.501 µg/mL in [22]. The substance also returned a neutralization IC50 (pseudovirus) in test [21] of 1.35 µg/mL. Also, the IC80 (pseudovirus neutralization) in test [7] came to 0.018 µg/mL; in test [9], 1.62 µg/mL. Also, the values for the IC90 (pseudovirus neutralization) in test [7] and in [9] were 0.0339 µg/mL and 6.91 µg/mL, respectively. The values for the IC95 (pseudovirus neutralization) in test [7] and in test [9] were 0.0608 µg/mL and greater than 10 µg/mL, respectively. The Polyclonal Transfectant Neutralization Index in test [23] worked out at 2.74. In test [23], the Primary Neutralization Index (B cell culture supernatant) was found to be 2.3.
As for 5145_B14 (PGT-127) (antibody), in test [11], the IC50 was greater than 50 µg/mL. The IC50 (µg/mL), pseudovirus neutralization in test [12] turned out to be 0.079 µg/mL; in [14] it was 0.075 µg/mL; in [17], 0.024 µg/mL; in [20] it was 21.5 µg/mL. Further, the IC50, pseudovirus neutralization in test [13] is 0.029 µg/mL; in test [15], greater than 50 µg/mL; in test [16] it was 0.393 µg/mL; in [18], greater than 50 µg/mL; in [19], 1.95 µg/mL. In [23], this substance displayed a Polyclonal Transfectant Neutralization Index of 0.94. In addition, the Primary Neutralization Index (B cell culture supernatant) in [23] came to 1.
As for 5345_I01 (PGT-137) (antibody), the IC50 neutralization in test [24] is greater than 50 µg/mL; in test [28], greater than 50 µg/mL; in test [31], 9.35 µg/mL; in test [32], greater than 50 µg/mL; in test [36], 3.41 µg/mL. Also, the IC50 (µg/mL), pseudovirus neutralization in test [25] is greater than 50 µg/mL; in test [26], 1.98 µg/mL; in [27], greater than 50 µg/mL; in test [29], greater than 50 µg/mL; in test [30] it was greater than 50 µg/mL; in test [33], greater than 50 µg/mL. In addition, the IC50 (µg/mL), pseudovirus neutralization in [34] is 18.5 µg/mL; in test [35] it was greater than 50 µg/mL.
In [2], PGV04 (antibody) gave an IC50 (µg/mL), pseudovirus neutralization of 0.78 µg/mL.
As for VRC01 (antibody), the IC50 (µg/mL), pseudovirus neutralization in test [2] was found to be 0.065 µg/mL. The substance also showed an IC50 in [27] of 0.452 µg/mL.

For the origin of these results see US20250320281A1.
